This assay has as its target T1, Recombinant SARS-CoV-2 N protein His tagged (SARS-CoV-2, UniProt P0DTC9 1-419).
T1 construct: also called nucleocapsid (N) protein; recombinant HIS tagged SARS-CoV-2 N protein
Nature of the assay: BLI (Octet Red 96E), mAb on anti-mouse Fc biosensor, N protein in solution, global 1:1 fit. In general terms: Biolayer interferometry detects binding as a change in optical thickness at a sensor tip.

B1: SCT-Pa20 (antibody, mouse IgG1, kappa, V domains shown)
VH: QVQLQQPGAELVKPGASVKLSCKASGYTFTDYWINWVKQRPGQGLEWIGNIYPGSSDTNYNEKFKRKATLTVDTSSSTAYMQLSSLTSDDSAVYYCARRPLFHAMDYWGQGTSVTVSS
VL: DIVLTQSPASLAVTLGQRATISCKASQSINYNGDNYMHWFQQKPGQPTKLLIYTASNLESGVPDRFSGSGSGTDFTLNIHPVEEEDAATYYCQQSKEFPWTFGGGTKLEIKR
In the case of B1, the Kd is 5.37 pM, the koff worked out at 3.09e-06 s⁻¹ and the kon was determined as 576000 M⁻¹ s⁻¹.

One may read the Kd as the concentration at which binding is half-saturated. The koff is the rate constant with which the complex falls apart. Usually kon stands for the second-order rate constant of association.

For the origin of these results see patent publication US20240059762A1 (SINGLE CELL TECHNOLOGY, published 2024).
